Experimental data: article doi:10.1101/2021.02.17.431492 (bioRxiv, 2021)

Biological target: monomeric SARS-CoV-2 receptor binding domain (RBD) (SARS-CoV-2, UniProt P0DTC2)
Assay: ELISA

B1: DH1041 (ACE2 binding site-targeting RBD neutralizing antibody) (antibody, V domains shown)
VH: EVQLVESGGGLVQPGGSLRLSCAASGVTFSSYWMSWVRQAPGKGLEWVANIRQDGSEKYSVDSVKGRFTISRDNAKNSLYLQMNSLRAEDTAVYYCARARRADNSGYYGFHFDCWGQGTLVTVSS
VL: QSVLTQPPSVSGAPGQRVTISCTGSSSNIGAGYDVHWYQQLPGTAPKLLIYGNNNRPSGVPDRFSDSKSGTSASLAITRLQAEDEADYYCQSYDSSLSGWVFGGGTKLTVL
Question: Does B1 bind?
Answer: Result: binds
